Positions of bridges follow the written chain, without caps; N, C: chain ends. No end group written: not given here.
Legend:
[1] = molecular target: β-klotho of differentiated 3T3-L1 adipocytes (mouse) (UniProt Q99N32); assay: cell-based or functional assay
human β-klotho = human β-klotho (human, UniProt Q86Z14 1-1044); assay: cell-based or functional assay
[2] = molecular target: T1, cynomolgous monkey serum albumin (cynomolgous monkey, UniProt A2V9Z4 25-608); assay: SPR (Biacore T100), CySA immobilized, 37 C, 30 µl/min
T1 construct: also called CySA
Method: (§1) Serum albumins were dissolved in PBS buffer (10 mM sodium phosphate, 130 mM sodium chloride, pH 7.1) to a concentration of 10 mg/ml, and subsequently diluted to 8-10 μg/ml in 10 mM sodium acetate pH 5.0 for immobilization. Serum albumins were immobilized on a Series S CM5 sensor chip using standard ethyl(dimethylaminopropyl) carbodiimide (EDC)/N-hydroxysuccinimide (NHS) chemistry in HBS-EP+ running buffer at 25° C., following general manufacturer guidelines. Flow cell 1 was activated with EDC/NHS and blocked with ethanolamine. […] Kinetic experiments were performed in PBS buffer containing 0.05% tween-20 (running buffer) at either 25° C. or 37° C. […] These samples were injected across flow cells 1-4 for 300 s, with a 420 s dissociation time, at flow rates of 30 μl/min or 60 μl/min to check for mass transfer limitation. All surfaces were regenerated with 2 pulses of 10 mM glycine pH 2.0 at 30 μl/min for 30 s. Raw sensograms were “double-referenced” by subtracting flow cell 1 data from flow cell 2, 3 or 4 data, and then subtracting a separate buffer cycle from each sensogram. The double-referenced sensogram data was fitted to a 1:1 Langmuir model using Biacore T100 Evaluation software version 2.0.2 to determine the association rate constant (ka), the dissociation rate constant (kd), and the equilibrium dissociation constant (KD).

human serum albumin [3] = molecular target: T2, human serum albumin (human, UniProt P02768 25-609); assay: SPR (Biacore T100), HSA immobilized, 37 C, 60 µl/min
T2 construct: also called HSA; HuSA
Method: as §1

human serum albumin [4] = molecular target: T2, human serum albumin; assay: SPR (Biacore T100), HSA immobilized, 37 C, 30 µl/min
Method: as §1

murine serum albumin [5] = molecular target: T3, murine serum albumin (mouse, UniProt P07724 25-608); assay: SPR (Biacore T100), immobilized MuSA, analyte series 1000 to 62.5 nM, 37 C
T3 construct: also called MuSA; mouse serum albumin
Method: as §1

[6] = molecular target: T1, cynomolgous monkey serum albumin; assay: SPR (Biacore T100), CySA immobilized, 37 C, 60 µl/min
Method: as §1

murine serum albumin [7] = molecular target: T3, murine serum albumin; assay: SPR (Biacore), albumin immobilized on CM5 chip
Method: (§3) In addition, binding to albumin was carried out under various pH conditions ranging from pH 5.5 to pH 7.4.

rhesus serum albumin = molecular target: T4, rhesus serum albumin (rhesus, UniProt Q28522 17-600); assay: SPR (Biacore), albumin immobilized on CM5 chip
T4 construct: also called RhSA
Method: as §3

human serum albumin [8] = molecular target: T2, human serum albumin; assay: SPR (Biacore), albumin immobilized on CM5 chip
Method: as §3

human NPY Y4 receptor = human NPY Y4 receptor (human, UniProt P50391 1-375); assay: cell-based or functional assay
human serum albumin [9] = molecular target: T2, human serum albumin; assay: SPR (ProteOn XPR36), HSA immobilized on GLC chip, 25 C
Method: (§2) Surface Plasmon Resonance (SPR) is a direct binding technique by which molecular interactions can be observed in real time. For these experiments, SPR binding studies were performed using a ProteOn XPR36 instrument (BioRad Laboratories). The running buffer, phosphate buffered saline 0.05% Tween 20 pH 7.4, was purchased from Teknova (cat #P1192) and all experiments were run at 25° C. Human serum albumin was directly immobilized on a BioRad GLC chip via amine coupling as per manufacturer's guidelines using amine coupling reagents purchased from BioRad Laboratories. Human serum albumin was purchased from Novozymes (Recombumin™). About 5000 resonance units (RU) of human serum albumin were immobilized onto 4 separate lanes of the GLC chip surface. […] The dissociation was monitored for 600 seconds. The surface was regenerated with 100 mM HCl. The resultant data were fitted to a Langumuir 1:1 binding model using the ProteOn Manager Software. The experiment was repeated with a different concentration range. In this second experiment, 5 concentrations ranging from 500 nM to 32 nM were injected over the surfaces, and the data analyzed as above. The KD is the disassociation constant. Smaller numbers indicate tighter binding to serum albumin.

Amylin receptor = Amylin receptor (chimpanzee; human, UniProt O60894 27-148); assay: cell-based or functional assay
human serum albumin [10] = molecular target: T2, human serum albumin; assay: Affinity for hSA by SPR (same value as in Table 21)
Method: as §2

human NPY Y2 receptor = molecular target: T5, human NPY Y2 receptor (human, UniProt P49146 1-381); assay: cell-based or functional assay
T5 sequence (looked up): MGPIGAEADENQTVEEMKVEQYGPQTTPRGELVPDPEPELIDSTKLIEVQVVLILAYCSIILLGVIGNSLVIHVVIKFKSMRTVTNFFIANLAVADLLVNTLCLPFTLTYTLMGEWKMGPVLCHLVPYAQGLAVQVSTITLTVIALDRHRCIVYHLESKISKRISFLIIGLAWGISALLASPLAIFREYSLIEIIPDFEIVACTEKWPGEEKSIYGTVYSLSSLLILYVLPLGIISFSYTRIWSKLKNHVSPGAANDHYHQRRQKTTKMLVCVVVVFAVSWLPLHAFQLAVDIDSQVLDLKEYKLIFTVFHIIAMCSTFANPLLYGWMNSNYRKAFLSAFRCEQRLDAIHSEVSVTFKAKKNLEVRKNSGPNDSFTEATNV

Sequence of Amylin receptor (O60894 27-148): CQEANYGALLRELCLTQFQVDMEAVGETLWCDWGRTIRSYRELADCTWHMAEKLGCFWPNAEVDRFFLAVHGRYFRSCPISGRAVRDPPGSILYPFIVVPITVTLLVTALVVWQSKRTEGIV
T1 sequence (A2V9Z4 25-608 limits assumed): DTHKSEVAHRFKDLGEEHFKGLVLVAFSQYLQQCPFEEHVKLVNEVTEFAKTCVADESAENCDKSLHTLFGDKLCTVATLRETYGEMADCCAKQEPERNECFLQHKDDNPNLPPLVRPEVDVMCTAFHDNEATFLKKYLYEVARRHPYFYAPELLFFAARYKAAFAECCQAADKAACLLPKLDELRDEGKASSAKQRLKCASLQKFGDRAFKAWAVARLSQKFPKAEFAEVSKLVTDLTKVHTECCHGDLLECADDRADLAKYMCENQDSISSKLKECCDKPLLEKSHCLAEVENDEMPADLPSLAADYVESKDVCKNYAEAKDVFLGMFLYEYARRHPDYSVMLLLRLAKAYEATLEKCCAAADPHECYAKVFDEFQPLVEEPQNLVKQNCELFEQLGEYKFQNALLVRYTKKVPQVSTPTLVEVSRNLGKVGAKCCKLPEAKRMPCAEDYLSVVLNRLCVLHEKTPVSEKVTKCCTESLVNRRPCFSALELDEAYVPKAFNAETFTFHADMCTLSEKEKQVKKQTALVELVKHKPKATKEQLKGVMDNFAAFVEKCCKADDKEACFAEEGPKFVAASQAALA
T4 sequence (Q28522 17-600 limits assumed): as the sequence (A2V9Z4 25-608 limits assumed) above
T3 sequence (P07724 25-608 limits assumed): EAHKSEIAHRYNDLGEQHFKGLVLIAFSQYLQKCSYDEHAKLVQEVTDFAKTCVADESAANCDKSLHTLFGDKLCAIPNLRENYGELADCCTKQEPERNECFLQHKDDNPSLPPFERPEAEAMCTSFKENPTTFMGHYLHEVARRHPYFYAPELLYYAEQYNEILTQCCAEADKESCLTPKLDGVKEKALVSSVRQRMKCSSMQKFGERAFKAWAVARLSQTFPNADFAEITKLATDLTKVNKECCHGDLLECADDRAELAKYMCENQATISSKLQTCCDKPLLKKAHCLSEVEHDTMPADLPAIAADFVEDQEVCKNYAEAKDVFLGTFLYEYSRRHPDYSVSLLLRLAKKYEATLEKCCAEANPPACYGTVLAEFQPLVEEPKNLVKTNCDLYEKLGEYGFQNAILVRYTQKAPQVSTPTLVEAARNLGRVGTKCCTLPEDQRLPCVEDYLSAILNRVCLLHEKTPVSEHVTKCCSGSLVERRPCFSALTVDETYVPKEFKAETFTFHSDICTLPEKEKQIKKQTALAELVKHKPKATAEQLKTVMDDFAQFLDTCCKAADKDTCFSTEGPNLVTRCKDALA
Sequence of human NPY Y4 receptor (P50391 whole entry): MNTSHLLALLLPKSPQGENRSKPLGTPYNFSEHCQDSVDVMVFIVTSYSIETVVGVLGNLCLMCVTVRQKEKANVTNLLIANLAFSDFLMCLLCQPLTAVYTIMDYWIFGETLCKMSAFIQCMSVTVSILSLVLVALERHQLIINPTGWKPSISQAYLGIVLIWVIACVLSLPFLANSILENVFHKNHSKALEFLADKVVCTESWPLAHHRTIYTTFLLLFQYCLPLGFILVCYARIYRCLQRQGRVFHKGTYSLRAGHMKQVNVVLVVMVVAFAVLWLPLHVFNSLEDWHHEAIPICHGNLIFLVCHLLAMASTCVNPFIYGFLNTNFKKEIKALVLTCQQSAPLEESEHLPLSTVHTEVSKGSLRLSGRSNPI
Sequence of β-klotho of differentiated 3T3-L1 adipocytes (mouse) (Q99N32 whole entry): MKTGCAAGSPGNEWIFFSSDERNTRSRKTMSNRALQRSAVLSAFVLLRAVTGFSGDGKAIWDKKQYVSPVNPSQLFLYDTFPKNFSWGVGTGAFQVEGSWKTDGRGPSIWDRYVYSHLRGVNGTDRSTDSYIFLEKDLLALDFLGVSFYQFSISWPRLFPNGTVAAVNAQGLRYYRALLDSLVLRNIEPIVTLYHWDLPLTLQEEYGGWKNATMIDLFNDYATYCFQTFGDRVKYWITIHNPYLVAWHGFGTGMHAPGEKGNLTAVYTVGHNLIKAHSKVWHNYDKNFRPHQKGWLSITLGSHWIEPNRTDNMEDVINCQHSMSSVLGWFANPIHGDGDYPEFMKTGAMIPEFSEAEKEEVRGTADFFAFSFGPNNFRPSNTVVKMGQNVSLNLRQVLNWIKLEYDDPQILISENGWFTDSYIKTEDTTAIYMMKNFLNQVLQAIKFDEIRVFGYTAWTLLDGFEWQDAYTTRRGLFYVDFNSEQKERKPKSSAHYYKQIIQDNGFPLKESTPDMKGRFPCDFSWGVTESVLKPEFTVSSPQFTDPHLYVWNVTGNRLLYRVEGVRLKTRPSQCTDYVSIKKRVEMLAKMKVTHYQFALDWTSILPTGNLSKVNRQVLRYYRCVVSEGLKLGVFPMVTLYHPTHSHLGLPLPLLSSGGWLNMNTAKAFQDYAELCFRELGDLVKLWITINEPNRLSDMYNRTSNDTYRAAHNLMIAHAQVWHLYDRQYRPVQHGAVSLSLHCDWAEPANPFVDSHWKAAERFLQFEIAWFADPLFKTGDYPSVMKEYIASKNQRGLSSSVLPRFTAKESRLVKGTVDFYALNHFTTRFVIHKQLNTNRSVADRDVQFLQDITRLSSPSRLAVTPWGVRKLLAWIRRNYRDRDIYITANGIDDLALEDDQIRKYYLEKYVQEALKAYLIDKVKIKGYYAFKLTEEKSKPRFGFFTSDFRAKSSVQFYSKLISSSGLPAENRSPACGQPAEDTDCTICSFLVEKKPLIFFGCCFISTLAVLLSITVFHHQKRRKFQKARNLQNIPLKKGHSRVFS

His-tagged FGF21 (from UniProt Q9NSA1 29-209) (ligand)
EC50 (nM), pERK assay in 3T3-L1 adipocytes [1]: 4 nM | Fold Activation, pERK assay in 3T3-L1 adipocytes [1]: 2.1 fold | EC50 (nM), pERK 1/2 assay in HEK β-Klotho expressing stable cells (human β-klotho): 7 nM | Efficacy (%), pERK 1/2 assay in HEK β-Klotho expressing stable cells (human β-klotho): 100%

B1: SABA1-FGF21v3 (designed binder)
chain: MGVSDVPRDLEVVAATPTSLLISWHSYYEQNSYYRITYGETGGNSPVQEFTVPYSQTTATISGLKPGVDYTITVYAVYGSKYYYPISINYRTEIDKPSQHHHHHHGSGSGSGSGSGSGSPIPDSSPLLQFGGQVRQRYLYTDDAQQTEAHLEIREDGTVGGAADQSPESLLQLKALKPGVIQILGVKTSRFLCQRPDGALYGSLHFDPEACSFRELLLEDGYNVYQSEAHGLPLHLPGNKSPHRDPAPRGPARFLPLPGLPPALPEPPGILAPQPPDVGSSDPLSMVGPSQGRSPSYAS
notes: Fusion of SABA1 and FGF21; also called SABA1-FGF21 variant 3
Kd [2]: 2200 nM | koff [2]: 0.0117 s⁻¹ | kon [2]: 5310 M⁻¹ s⁻¹ | Kd (human serum albumin [3]): 180 nM | koff (human serum albumin [3]): 0.00107 s⁻¹ | kon (human serum albumin [3]): 5870 M⁻¹ s⁻¹ | Kd (human serum albumin [4]): 170 nM | koff (human serum albumin [4]): 0.00103 s⁻¹ | kon (human serum albumin [4]): 6160 M⁻¹ s⁻¹ | binding result (murine serum albumin [5]): no binding (tested: 1000 nM) | Kd [6]: 3100 nM | koff [6]: 0.0136 s⁻¹ | kon [6]: 4380 M⁻¹ s⁻¹

B2: SABA1.1 (designed binder)
chain: MGVSDVPRDLEVVAATPTSLLISWHSYYEQNSYYRITYGETGGNSPVQEFTVPYSQTTATISGLKPGVDYTITVYAVYGSKYYYPISINYRTEIDKPSQHHHHHH
binding result (murine serum albumin [7]): no binding | Kd (rhesus serum albumin): 778 nM | koff (rhesus serum albumin): 0.00545 s⁻¹ | Kd (human serum albumin [8]): 47.2 nM | koff (human serum albumin [8]): 0.000457 s⁻¹

APLEPMYPGDYATPEQMAQYETQLRRYINTLTRPRY-NH2 [PP Control Peptide]
Potency (EC50, nM), GTPγS binding functional assay (human NPY Y4 receptor): 1.7 nM

B3: SABA1-AMYv25 (designed binder)
chain: MGVSDVPRDLEVVAATPTSLLISWHSYYEQNSYYRITYGETGGNSPVQEFTVPYSQTTATISGLKPGVDYTITVYAVYGSKYYYPISINYRTEIEDEDEDEDEDGC
modifications: Maleimide-PEG20 spacer (X1) between the Cys after (ED)5G and AMYv5 (rat amylin); C-terminal amidation; disulfide bridge between the two Cys residues of amylin
notes: also called SABA-Amylin-CONH2 conjugate; SABA1.7-(ED)5G-Cys-PEG20-Amylin-CONH2
Kd (human serum albumin [9]): 25.8 nM | koff (human serum albumin [9]): 0.000241 s⁻¹ | kon (human serum albumin [9]): 9340 M⁻¹ s⁻¹ | Cell based Potency (EC50, nM), cellular cAMP assay (Amylin receptor): 12.2 nM | Efficacy (% of native peptide ligand maximal activity), cellular cAMP assay (Amylin receptor): 119% | Kd (human serum albumin [10]): 25.8 nM

B4: SABA1-PPv7 (designed binder)
chain: B3 chain
modifications: Maleimide-PEG20 spacer (X1) between the Cys after (ED)5G and PPv9 (mouse PP); C-terminal amidation
notes: also called SABA-PP-CONH2 conjugate; SABA1-APPv7
Kd (human serum albumin [9]): 18.8 nM | koff (human serum albumin [9]): 0.000142 s⁻¹ | kon (human serum albumin [9]): 7880 M⁻¹ s⁻¹ | Potency (EC50), GTPγS binding functional assay (human NPY Y4 receptor): > 1000 nM | Kd (human serum albumin [10]): 18.8 nM

B5: SABA1-PYYv7 (designed binder)
chain: B3 chain
modifications: Maleimide-PEG20 spacer (X1) between the Cys after (ED)5G and PYYv17 (mouse PYY3-36); C-terminal amidation
notes: also called SABA-PYY3-36-CONH2 conjugate; SABA1.7-(ED)5G-Cys-PEG20-PYY-CONH2
Kd (human serum albumin [9]): 22.5 nM | koff (human serum albumin [9]): 0.000208 s⁻¹ | kon (human serum albumin [9]): 9290 M⁻¹ s⁻¹ | Potency (EC50, nM), GTPγS binding functional assay (human NPY Y2 receptor): 52 nM | Kd (human serum albumin [10]): 22.5 nM

KCNTATCATQRLANFLVRSSNNLGPVLPPTNVGSNTY-NH2 (disulfide 2-7) [Amylin Control Peptide]
Efficacy (% of native peptide ligand maximal activity), cellular cAMP assay (Amylin receptor): 100%

B6: SABA2.1 (designed binder)
chain: MGVSDVPRDLEVVAATPTSLLISWPKYDKTGHYYRITYGETGGNSPVQEFTVPTRQTTATISGLKPGVDYTITVYAVSKDDYYPHEHRPISINYRTEIDKPSQHHHHHH
notes: His6-tagged Adnectin core 2
binding result (murine serum albumin [7]): no binding | Kd (rhesus serum albumin): 63.6 nM | koff (rhesus serum albumin): 0.000442 s⁻¹ | Kd (human serum albumin [8]): 33.8 nM | koff (human serum albumin [8]): 0.000171 s⁻¹

B7: SABA3.1 (designed binder)
chain: MGVSDVPRDLEVVAATPTSLLISWSNDGPGLSYYRITYGETGGNSPVQEFTVPSSQTTATISGLKPGVDYTITVYAVSYYTKKAYSAGPISINYRTEIDKPSQHHHHHH
notes: His6-tagged Adnectin core 3
binding result (murine serum albumin [7]): no binding | Kd (rhesus serum albumin): 431 nM | koff (rhesus serum albumin): 0.0337 s⁻¹ | Kd (human serum albumin [8]): 863 nM | koff (human serum albumin [8]): 0.0682 s⁻¹

B8: SABA4.1 (designed binder)
chain: MGVSDVPRDLEMVAATPTSLLISWEDDSYYSRYYRITYGETGGNSPVQEFTVPSDLYTATISGLKPGVDYTITVYAVTYDVTDLIMHEPISINYRTEIDKPSQHHHHHH
notes: His6-tagged Adnectin core 4; has a scaffold mutation; the scaffold-perfect version is SABA5
binding result (murine serum albumin [7]): no binding | Kd (rhesus serum albumin): > 1000 nM | koff (rhesus serum albumin): 0.00383 s⁻¹ | Kd (human serum albumin [8]): 412 nM | koff (human serum albumin [8]): 0.000782 s⁻¹
